{
  "source": "paper PMC2976503",
  "about": "(The Journal of neuroscience : the official journal of the …, 2010)",
  "proteins": {"B1": {"name": "GABAA receptor γ2S(Q351X)^FLAG subunit (domain or fragment, human, UniProt P18507-1 40-389, looked up)", "chain": "QKSDDDYEDYASNKTWVLTPKVPEGDVTVILNNLLEGYDNKLRPDIGVKPTLIHTDMYVNSIGPVNAINMEYTIDIFFAQTWYDRRLKFNSTIKVLRLNSNMVGKIWIPDTFFRNSKKADAHWITTPNRMLRIWNDGRVLYTLRLTIDAECQLQLHNFPMDEHSCPLEFSSYGYPREEIVYQWKRSSVEVGDTRSWRLYQFSFVGLRNTTEVVKTTSGDYVVMSVYFDLSRRMGYFTIQTYIPCTLIVVLSWVSFWINKDAVPARTSLGITTVLTMTTLSTIARKSLPKVSYVTAMDLFVSVCFIFVFSALVEYGTLHYFVSNRKPSKDKDKKKKNPAPTIDIRPRSATI"}},
  "biological_target": "the molecule itself",
  "test": "SDS-resistant high molecular mass complex on SDS-PAGE",
  "data": [
    {"protein": "B1", "values": [
      {"measurement": "stoichiometry N", "value": 2}
    ]}
  ]
}
